The text below walks through data of US20240309103A1 (Regeneron, published 2024).

In general, EC50 refers to the concentration giving half of the maximal effect. A high value points to a less potent agent. One may read the Kd as a measure of binding affinity in units of concentration. High values mean lower affinity, low ones higher affinity. For orientation: koff means the first-order rate constant of dissociation. Lower therefore signals slow dissociation. What is called kon is a measure of how fast the partners come together. Low values mean slow association, high ones fast association. The t½ is how long it takes for the measured level to halve. A lower t½ goes with rapid decline.

Series [1] deals with the molecule itself. In words: SEC-MALS. On the technique in general: SEC sorts molecules by how far they enter the pores of the column.
Procedure: After overnight incubation in PBS at 4° C., the complexes were injected into the SEC-MALS system, which consists of a Superdex 200 Increase 10/300 GI column on an ÄKTA micro system (GE Healthcare Life Sciences), followed by a miniDAWN Treos and Optilab T-rEX (Wyatt Technology Corporation). […] Size exclusion chromatography data was evaluated using Unicorn (Version 5.20 General Electric Company), and the MALS data was evaluated using ASTRA (Version 7.0.0.69 Wyatt Technology).
For series [2], the target named is T1, human NPR1 on HEK293/hNPR1.myc.DDK cells (0 hANP) (human, UniProt P16066 33-1061).
T1 sequence: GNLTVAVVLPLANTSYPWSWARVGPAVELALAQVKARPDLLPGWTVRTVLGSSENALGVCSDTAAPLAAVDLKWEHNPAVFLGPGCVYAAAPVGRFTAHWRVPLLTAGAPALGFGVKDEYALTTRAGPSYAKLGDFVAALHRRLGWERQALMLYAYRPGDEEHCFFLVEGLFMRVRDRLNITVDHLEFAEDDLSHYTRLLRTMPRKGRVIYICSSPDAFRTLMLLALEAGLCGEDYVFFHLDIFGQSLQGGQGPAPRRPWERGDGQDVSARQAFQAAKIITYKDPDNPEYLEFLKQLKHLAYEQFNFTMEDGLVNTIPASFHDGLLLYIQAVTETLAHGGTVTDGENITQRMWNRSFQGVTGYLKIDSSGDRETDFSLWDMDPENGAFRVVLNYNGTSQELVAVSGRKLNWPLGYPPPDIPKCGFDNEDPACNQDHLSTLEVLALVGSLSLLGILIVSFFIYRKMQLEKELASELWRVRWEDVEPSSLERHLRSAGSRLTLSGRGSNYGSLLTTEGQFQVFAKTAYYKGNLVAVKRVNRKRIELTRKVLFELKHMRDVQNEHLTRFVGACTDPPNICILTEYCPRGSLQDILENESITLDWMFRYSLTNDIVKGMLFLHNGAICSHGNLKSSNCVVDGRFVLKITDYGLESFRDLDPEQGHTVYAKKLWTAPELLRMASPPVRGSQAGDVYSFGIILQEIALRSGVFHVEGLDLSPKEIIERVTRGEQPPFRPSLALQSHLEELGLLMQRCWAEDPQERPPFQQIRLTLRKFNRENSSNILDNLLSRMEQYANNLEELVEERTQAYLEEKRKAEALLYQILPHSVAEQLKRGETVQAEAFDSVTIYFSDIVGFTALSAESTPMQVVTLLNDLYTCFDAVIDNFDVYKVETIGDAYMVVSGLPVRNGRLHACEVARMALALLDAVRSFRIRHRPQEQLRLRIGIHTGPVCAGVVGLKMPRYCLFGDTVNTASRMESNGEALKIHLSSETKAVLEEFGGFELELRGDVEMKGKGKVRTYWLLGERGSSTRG
In words: cell-based or functional assay.

Series [3] addresses T1, human NPR1 on HEK293/hNPR1.myc.DDK …. The series is described as follows: ECL cell binding (MSD), 0 hANP.
The target of series [4] is T2, human NPR1 on HEK293/hNPR1.myc.DDK cells with 10 nM hANP (NPR1-ANP complex) (human, UniProt P01160 124-151).
T2 construct: also called NPR1-ANP Complex on the Cell Surface
T2 sequence: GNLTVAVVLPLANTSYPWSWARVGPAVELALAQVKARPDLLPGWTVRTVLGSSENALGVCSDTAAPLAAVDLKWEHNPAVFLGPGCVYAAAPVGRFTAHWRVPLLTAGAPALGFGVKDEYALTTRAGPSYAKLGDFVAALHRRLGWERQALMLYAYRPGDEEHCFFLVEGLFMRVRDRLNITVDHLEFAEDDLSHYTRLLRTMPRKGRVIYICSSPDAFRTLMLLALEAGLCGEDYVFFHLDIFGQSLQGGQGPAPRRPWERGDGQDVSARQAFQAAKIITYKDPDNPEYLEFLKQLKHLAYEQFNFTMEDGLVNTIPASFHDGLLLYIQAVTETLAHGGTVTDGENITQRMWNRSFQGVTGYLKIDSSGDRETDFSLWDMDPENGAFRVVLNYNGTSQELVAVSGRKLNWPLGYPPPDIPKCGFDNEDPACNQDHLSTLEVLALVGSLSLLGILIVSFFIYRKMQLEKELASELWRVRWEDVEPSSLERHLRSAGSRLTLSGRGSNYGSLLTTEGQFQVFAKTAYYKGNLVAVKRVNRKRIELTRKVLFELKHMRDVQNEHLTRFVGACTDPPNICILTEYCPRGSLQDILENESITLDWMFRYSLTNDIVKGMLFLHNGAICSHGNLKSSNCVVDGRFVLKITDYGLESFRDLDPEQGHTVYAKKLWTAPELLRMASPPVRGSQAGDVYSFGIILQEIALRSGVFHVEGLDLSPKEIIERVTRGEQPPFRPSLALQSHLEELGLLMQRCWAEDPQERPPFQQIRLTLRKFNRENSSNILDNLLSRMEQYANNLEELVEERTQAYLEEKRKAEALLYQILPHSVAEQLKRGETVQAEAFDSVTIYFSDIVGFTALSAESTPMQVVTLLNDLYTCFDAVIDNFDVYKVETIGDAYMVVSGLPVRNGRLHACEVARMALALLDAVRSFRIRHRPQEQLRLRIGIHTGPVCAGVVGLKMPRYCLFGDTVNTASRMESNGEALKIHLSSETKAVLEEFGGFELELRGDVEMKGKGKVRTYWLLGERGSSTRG
T2 sequence (peptide): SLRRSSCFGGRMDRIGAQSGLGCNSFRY
In words: ECL cell binding (MSD), +10 nM hANP.

In series [5] the target is T3, mfNPR1-mFc:hBNP complex (monkey; human, UniProt P16860 103-134).
T3 construct: Receptor-Fc pre-complexed with 10-fold hBNP
In words: SPR Biacore, mAb captured by anti-human Fc, 37C. In outline:
(§1)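 Read-out is KD from real-time SPR (Biacore 4000). Purified mAbs sat on an anti-human Fc capture surface (mouse mAb or goat anti-Fcγ polyclonal) on CM5. Runs used HBS-ET: 10 mM HEPES, 150 mM NaCl, 3 mM EDTA, 0.05% Tween-20, pH 7.4.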

Series [6] concerns the target T4, mNPR1-mFc (mouse).
T4 construct: also called mouse NPR1 extracellular domain expressed with a C-terminal mouse IgG2a
T4 chain: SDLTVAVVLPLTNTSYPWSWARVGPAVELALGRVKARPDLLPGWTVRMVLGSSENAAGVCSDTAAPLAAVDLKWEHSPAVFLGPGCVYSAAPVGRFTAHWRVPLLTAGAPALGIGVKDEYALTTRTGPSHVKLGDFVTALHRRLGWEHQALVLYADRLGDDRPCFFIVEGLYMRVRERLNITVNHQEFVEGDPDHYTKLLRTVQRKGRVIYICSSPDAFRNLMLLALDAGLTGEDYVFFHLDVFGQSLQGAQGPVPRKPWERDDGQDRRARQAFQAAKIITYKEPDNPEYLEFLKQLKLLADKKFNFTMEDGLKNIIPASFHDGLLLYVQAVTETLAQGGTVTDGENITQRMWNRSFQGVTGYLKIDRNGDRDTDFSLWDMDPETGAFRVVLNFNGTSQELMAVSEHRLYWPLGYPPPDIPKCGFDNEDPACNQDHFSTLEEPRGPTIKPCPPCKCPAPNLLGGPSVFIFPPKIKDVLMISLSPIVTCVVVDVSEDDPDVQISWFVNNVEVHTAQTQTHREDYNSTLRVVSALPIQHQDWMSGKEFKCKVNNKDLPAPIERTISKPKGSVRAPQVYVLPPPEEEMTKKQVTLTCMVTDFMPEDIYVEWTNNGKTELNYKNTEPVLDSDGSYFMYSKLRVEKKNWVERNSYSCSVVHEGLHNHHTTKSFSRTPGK
The series is described as follows: SPR Biacore, mAb captured by anti-human Fc, 37C. In outline: as §1
Background: In SPR one partner is held on a chip, and binding of the other changes the refractive index at the surface.

In series [7] the target is T4, mNPR1-mFc. In words: SPR Biacore, mAb captured by anti-human Fc, 25C. Summed up:
as §1

In series [8] the target is T1, human NPR1 on HEK293/hNPR1.myc.DDK …. In words: ECL cell binding (MSD), HEK293/hNPR1.myc.DDK cells, 0 hANP. Here is the method:
Experiments were carried out according to the following procedure. Cells from lines described above were rinsed once in 1×PBS buffer without Ca²⁺/Mg²⁺ nd incubated for 10 minutes at 37° C. with Enzyme Free Cell Dissociation Solution to detach cells from a flask. All cells were washed once with 1×PBS with Ca²⁺/Mg²⁺ and counted with a Cellometer™ Auto T4 cell counter (Nexcelom Bioscience). Approximately 2.0×10⁴ HEK293/hNPR1.myc.DDK or HEK293 cells were seeded separately onto 96-well carbon electrode plates (MULTI-ARRAY high bind plate, Meso Scale Discovery (MSD, Rockville, MD)) and incubated for 1 hour (h) at 37° C. Nonspecific binding sites were blocked by 2% BSA (w/v) in 1×PBS with Ca²⁺/Mg²⁺for 1 h at room temperature (RT). HEK293/hNPR1.myc. […] The plate-bound antibodies were detected with SULFO-TAG™-conjugated goat polyclonal anti-human IgG antibody specific for heavy and light chains (Jackson Immunoresearch, West Grove, PA) for 1 h, RT.
After washes, plates were developed with Read Buffer (MSD, Rockville, MD) according to manufacturer's recommended procedure and luminescent signals were recorded with a SECTOR Imager 600 (MSD, Rockville, MD). Luminescence intensity, measured in relative light units (RLU), was recorded to indicate the binding intensity of each antibody at the range of concentrations.

B1: human NPR1 extracellular domain expressed with a C-terminal myc-myc-hexahistidine (hNPR1-MMH) (receptor)
chain: GNLTVAVVLPLANTSYPWSWARVGPAVELALAQVKARPDLLPGWTVRTVLGSSENALGVCSDTAAPLAAVDLKWEHNPAVFLGPGCVYAAAPVGRFTAHWRVPLLTAGAPALGFGVKDEYALTTRAGPSYAKLGDFVAALHRRLGWERQALMLYAYRPGDEEHCFFLVEGLFMRVRDRLNITVDHLEFAEDDLSHYTRLLRTMPRKGRVIYICSSPDAFRTLMLLALEAGLCGEDYVFFHLDIFGQSLQGGQGPAPRRPWERGDGQDVSARQAFQAAKIITYKDPDNPEYLEFLKQLKHLAYEQFNFTMEDGLVNTIPASFHDGLLLYIQAVTETLAHGGTVTDGENITQRMWNRSFQGVTGYLKIDSSGDRETDFSLWDMDPENGAFRVVLNYNGTSQELVAVSGRKLNWPLGYPPPDIPKCGFDNEDPACNQDHLSTLEEQKLISEEDLGGEQKLISEEDLHHHHHH
notes: also called hNPR.mmh; monomeric human NPR1
With B1, the binding result in series [1] is recorded as “binds”.

B2: mAb25545 (antibody, human IgG4, V domains shown)
VH: QVQLVESGGGLVKPGGSLRLSCAASGFTFSDYHLSWIRQAPGKGLEWVSYIRSSGRTIDYAASVKGRFTISRDNAKNSLYLQMNSLRVEDTAVYYCARENWIVLKVYAGIVGAPLDQWGQGTLVTVSS
VL: not shown
Take B2: in series [2], the “% Activation (vs ANP max), Expt 1” value was 123%; the “% Activation (vs. ANP max), Expt II” value stood at 123%; the “EC50 (nM), calcium flux, Expt 1” value amounted to 188 nM; the “EC50 (nM), calcium flux, Expt II” value turned out to be 74.1 nM. The “Ratio at 3.7 nM Ab concentration of Cell Binding Signal (RLU) to HEK293/hNPR1.myc.DKK relative to parental HEK293” value in series [3] was found to be 1 ratio. In series [4], the response was half-maximal at 1.9 nM (EC50) and the “Ratio at 3.7 nM Ab concentration of Cell Binding Signal (RLU) to HEK293/hNPR1.myc.DKK relative to parental HEK293” value was determined as 79 ratio. For the same molecule, in series [5], the “100 nM Ag Bound (RU)” value amounted to 82 RU, the Kd stood at 2.09 nM, the koff was found to be 7.77e-05 s⁻¹ and the kon turned out to be 37100 M⁻¹ s⁻¹. This molecule came in with a t½ in series [5] of 2.48 h. Further, in series [6], the “100 nM Ag Bound (RU)” value came out at 1 RU and the binding result was “no binding (tested: 100 nM)”. Moreover, the “100 nM Ag Bound (RU)” value in series [7] turned out to be 0 RU. For the same molecule, the binding result in series [8] is “no binding (tested: ratio below 3 at 3.7 nM Ab)”.

B3: mAb22809 (antibody, human IgG4, V domains shown)
VH: QLQLRESGPGLVKPSETLSLTCTVSGGSINDNSFFWDWIRQTPGRGLEWIGNIFFDGNTYYTPSLKSRVIISVDMSQNQFSLRLTSVTAADTALYYCARHKRSMTAWGFFDYWGQGTLVTVSS
VL: DIQMTQSPSSLSASVGDRVTITCRASKRINTYLNWYQQKPGKAPKVLIYSASNLQSGVPSRFSGSGSGTDFTLTINSLQPEDFATYFCQQSFSAPPITFGQGTRLEIK
With B3, in series [2], the “% Activation (vs ANP max), Expt 1” value worked out at 86.7% and the “EC50 (nM), calcium flux, Expt 1” value came out at 270 nM. In series [3], the “Ratio at 3.7 nM Ab concentration of Cell Binding Signal (RLU) to HEK293/hNPR1.myc.DKK relative to parental HEK293” value turned out to be 2 ratio. For the same molecule, in series [4], the response was half-maximal at 0.48 nM (EC50) and the “Ratio at 3.7 nM Ab concentration of Cell Binding Signal (RLU) to HEK293/hNPR1.myc.DKK relative to parental HEK293” value was 166 ratio. Besides, in series [5], the “100 nM Ag Bound (RU)” value worked out at 99 RU; the affinity, expressed as Kd, was 4.29 nM; the koff amounted to 0.000229 s⁻¹; the kon is 53400 M⁻¹ s⁻¹. Moreover, the t½ in series [5] came out at 0.842 h. Besides, in series [6], the “100 nM Ag Bound (RU)” value is 0 RU and the binding result was “no binding (tested: 100 nM)”. Besides, the “100 nM Ag Bound (RU)” value in series [7] was 0 RU. Besides, the binding result in series [8] is recorded as “no binding (tested: ratio below 3 at 3.7 nM Ab)”.
